The values below are quoted from earlier work in article PMC6092819.

This data set deals with Kv1.3 (Homo sapiens) (UniProt P22001).
UniProt P22001, sequence (P22001 whole entry): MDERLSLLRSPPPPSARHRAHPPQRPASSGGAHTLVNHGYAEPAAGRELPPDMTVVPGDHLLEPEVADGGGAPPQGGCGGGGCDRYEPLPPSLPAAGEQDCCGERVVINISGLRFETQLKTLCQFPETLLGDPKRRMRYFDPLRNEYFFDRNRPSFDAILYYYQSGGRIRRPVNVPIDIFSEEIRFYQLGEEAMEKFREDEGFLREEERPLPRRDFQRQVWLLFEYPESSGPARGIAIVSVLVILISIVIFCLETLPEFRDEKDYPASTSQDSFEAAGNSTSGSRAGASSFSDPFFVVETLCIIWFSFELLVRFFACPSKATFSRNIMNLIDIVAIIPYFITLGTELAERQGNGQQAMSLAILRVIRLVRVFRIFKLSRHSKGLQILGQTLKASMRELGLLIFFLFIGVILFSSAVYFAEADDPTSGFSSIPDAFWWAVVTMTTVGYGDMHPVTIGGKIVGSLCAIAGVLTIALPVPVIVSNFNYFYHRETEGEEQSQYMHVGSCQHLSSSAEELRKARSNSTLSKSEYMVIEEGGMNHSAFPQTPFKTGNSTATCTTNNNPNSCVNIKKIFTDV

With ShK (from UniProt P29187), the Kd is 0.01 nM.

What is called Kd is the concentration at which binding is half-saturated.
